Measured values: US20160264662A1 (US Dept. of Health and Human Services, published 2016)

Target: T1, human TEM8 (hTEM8) expressed on CHO or 293 cells (human, UniProt Q9H6X2 33-564)
T1 construct: also called CHO TEM8
Test: cell-based ELISA-type titration of m825-MMAE on CHO cells overexpressing TEM8, with TEM8-negative CHO cells as control; absorbance at 450 nm against Log (ng/well)

T1 sequence (Q9H6X2 33-564 limits assumed): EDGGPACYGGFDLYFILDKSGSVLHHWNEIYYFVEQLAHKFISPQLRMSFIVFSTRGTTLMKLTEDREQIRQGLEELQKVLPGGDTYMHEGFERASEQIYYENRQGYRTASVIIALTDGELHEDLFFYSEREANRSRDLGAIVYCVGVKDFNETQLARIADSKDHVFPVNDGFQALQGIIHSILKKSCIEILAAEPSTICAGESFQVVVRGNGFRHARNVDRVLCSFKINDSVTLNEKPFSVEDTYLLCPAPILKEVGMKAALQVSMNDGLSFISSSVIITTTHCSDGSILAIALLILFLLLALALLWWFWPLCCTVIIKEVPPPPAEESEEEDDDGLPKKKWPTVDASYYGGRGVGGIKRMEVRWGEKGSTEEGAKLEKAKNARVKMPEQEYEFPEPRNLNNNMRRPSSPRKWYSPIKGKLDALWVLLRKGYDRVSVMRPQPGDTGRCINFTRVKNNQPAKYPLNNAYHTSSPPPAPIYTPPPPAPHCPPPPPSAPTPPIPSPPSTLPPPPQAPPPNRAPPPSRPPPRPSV

B1: m825-MMAE conjugate (m825 antibody in human IgG1 format conjugated to MMAE) (other)
VH: QVQLVQSGAEVKKPGTSVKVSCKVPGYTFSSYAISWVRQAPGQGLEWMGGIIPIFGTTNYAQKFQGRVTITGEESTSTVYMELSSLRSEDTAVYYCARDTDYMFDYWGQGTLVTVSS
VL: SSELTQDPVVSVALGETVSITCQGDNLRDFYASWYQQKPGQAPLLVMYGKNRRPSGIPDRFSGSTSGNTLSLTITGAQAEDEADYYCSSRDNSKHVVFGGGTKVTVL
modifications: MMAE with stretcher unit, Val-Cit peptide cleavage site and spacer, attached to thiol groups formed by partial reduction of inter-chain disulfide bonds (positions not stated)
notes: also called anti-TEM8-MMAE
  EC50 (read off the curve): ~2 ng/well
